Reference: patent publication US20220119534A1 (DRAGONFLY THERAPEUTICS, published 2022)
Several values for one entry are separate records, joined by “and”; a condition that tells them apart may be missing. Equal entries are not always repeated. Each block holds one binder with its values, some of them ahead of it.

What was measured:
Human CD16b (FcγRIIIb) [1] = target: T1, Human CD16b (FcγRIIIb) (human, UniProt O75015 17-200, limits assumed, biotinylated); test: SPR 25C, average
T1 construct: Bought recombinant receptor; also called hFcγRIIIb; CD16b (FcγR3b)

[2] = target: T2, mFc-hNKG2D (recombinant mFc-tagged human NKG2D dimer) (human, UniProt P26718 73-216); test: SPR; control sample
T2 construct: extracellular domain; Made in house; not shown: mouse Fc tag
T2 sequence (looked up): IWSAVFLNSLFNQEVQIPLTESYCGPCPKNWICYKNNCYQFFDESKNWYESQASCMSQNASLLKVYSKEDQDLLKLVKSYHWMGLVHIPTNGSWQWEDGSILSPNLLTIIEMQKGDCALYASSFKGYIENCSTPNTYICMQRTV

[3] = target: T3, Human CD16a V158 (FcγRIIIa V158) (human, UniProt P08637 17-208, biotinylated); test: SPR; control sample
T3 construct: Bought recombinant receptor; also called hCD16aV; hFcγRIIIa V158

[4] = target: T4, Human CLEC12A expressed on cells (Ba/F3-hCLEC12A, PL21, HL60) (human, UniProt Q5QGZ9 1-265); test: cell-based or functional assay
T4 sequence: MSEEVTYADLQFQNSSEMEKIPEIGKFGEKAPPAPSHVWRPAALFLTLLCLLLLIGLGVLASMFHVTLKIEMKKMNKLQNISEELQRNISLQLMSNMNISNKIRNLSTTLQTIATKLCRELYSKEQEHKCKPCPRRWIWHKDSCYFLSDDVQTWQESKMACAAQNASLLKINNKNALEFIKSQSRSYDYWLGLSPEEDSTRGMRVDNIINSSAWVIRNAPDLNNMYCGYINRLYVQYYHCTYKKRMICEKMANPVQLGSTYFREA

[5] = target: T2, mFc-hNKG2D (recombinant mFc-tagged …); test: SPR; after low pH hold
[6] = target: T3, Human CD16a V158 (FcγRIIIa V158); test: SPR; after low pH hold
[7] = target: T4, Human CLEC12A expressed on cells …; test: cell-based or functional assay; remark: listed apart in the source
Human CD16b (FcγRIIIb) [8] = target: T1, Human CD16b (FcγRIIIb); test: SPR 25C, biotinylated CD16b captured
[9] = target: T5, Cynomolgus CD16 (FcγRIII) (cynomolgus monkey, UniProt Q8SPW2 17-208, biotinylated); test: SPR 25C, biotinylated cyno CD16 captured
T5 construct: Bought recombinant receptor; also called cFcγRIII; Cyno FcγRIII

[10] = target: T6, Human CLEC12A-His (recombinant, K244 WT) (human, UniProt Q5QGZ9 65-265); test: SPR, two-state fit (kd1); after low pH hold
T6 construct: Made in house (Dragonfly Tx); also called hCLEC12A; hCLEC12A-His; not shown: His tag
T6 sequence: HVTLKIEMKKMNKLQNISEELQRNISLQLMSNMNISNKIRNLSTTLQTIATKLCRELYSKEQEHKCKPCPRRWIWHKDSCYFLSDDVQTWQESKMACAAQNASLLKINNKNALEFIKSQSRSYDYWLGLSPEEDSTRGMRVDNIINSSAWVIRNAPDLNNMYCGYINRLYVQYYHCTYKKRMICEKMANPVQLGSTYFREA

[11] = target: T6, Human CLEC12A-His (recombinant, K244 WT); test: SPR, two-state fit (kd1); after pH 8, 40C, 2 wks
[12] = target: T7, human CLEC12A on cells (HL60, PL21, Ba/F3-hCLEC12A) (human, UniProt Q5QGZ9 1-265); test: flow cytometry, HL-60 cells
T7 construct: Endogenous on the AML lines HL60 and PL21; brought into mouse Ba/F3 cells by retroviral transduction; The cell line stands under assay; also called CLL-1
T7 sequence: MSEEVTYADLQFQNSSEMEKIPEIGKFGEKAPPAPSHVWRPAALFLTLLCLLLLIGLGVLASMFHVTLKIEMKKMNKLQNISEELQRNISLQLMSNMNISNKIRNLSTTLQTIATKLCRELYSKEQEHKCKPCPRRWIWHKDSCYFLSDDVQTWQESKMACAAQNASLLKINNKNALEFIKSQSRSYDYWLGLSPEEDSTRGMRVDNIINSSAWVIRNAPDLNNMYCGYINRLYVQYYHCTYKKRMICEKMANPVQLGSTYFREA

T1 sequence (O75015 17-200 limits assumed): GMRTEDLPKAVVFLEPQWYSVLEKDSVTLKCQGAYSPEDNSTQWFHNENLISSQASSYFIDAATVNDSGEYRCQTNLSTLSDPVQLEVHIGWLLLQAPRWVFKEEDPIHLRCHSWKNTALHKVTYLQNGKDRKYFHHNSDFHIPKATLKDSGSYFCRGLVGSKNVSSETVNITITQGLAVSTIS
T5 sequence (Q8SPW2 17-208 limits assumed): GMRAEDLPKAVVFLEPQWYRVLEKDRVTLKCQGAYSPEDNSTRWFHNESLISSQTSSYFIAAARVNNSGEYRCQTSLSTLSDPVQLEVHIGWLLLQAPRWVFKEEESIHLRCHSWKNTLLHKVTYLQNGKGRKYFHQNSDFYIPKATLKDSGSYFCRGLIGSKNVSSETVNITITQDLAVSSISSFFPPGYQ
T3 sequence (P08637 17-208 F176V limits assumed): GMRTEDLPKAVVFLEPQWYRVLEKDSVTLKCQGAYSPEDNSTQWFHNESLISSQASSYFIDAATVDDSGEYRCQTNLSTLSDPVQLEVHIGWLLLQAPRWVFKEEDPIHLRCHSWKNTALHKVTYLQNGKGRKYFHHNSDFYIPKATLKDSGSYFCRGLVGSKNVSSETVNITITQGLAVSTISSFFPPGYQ

Kd (Human CD16b (FcγRIIIb) [1]): 8900 nM
Kd [2]: 881 nM
koff [2]: 0.143 s⁻¹
kon [2]: 162000 M⁻¹ s⁻¹
Kd [3]: 333 nM
koff [3]: 0.0277 s⁻¹
kon [3]: 83100 M⁻¹ s⁻¹
Kd [5]: 941 nM
koff [5]: 0.15 s⁻¹
kon [5]: 159000 M⁻¹ s⁻¹
Kd [6]: 314 nM
koff [6]: 0.0274 s⁻¹
kon [6]: 87300 M⁻¹ s⁻¹
EC50, NK cell induction of IFNγ and CD107a in co-culture with PL21 cells (mean of three donors) [7]: 0.08 nM
Kd (Human CD16b (FcγRIIIb) [8]): 10300 nM and 8800 nM and 7400 nM
Kd [9]: 351 nM and 347 nM and 348 nM
koff [10]: 0.0465 s⁻¹
koff [11]: 0.049 s⁻¹
B1: AB0089 TriNKET (bispecific antibody, human IgG1, kappa)
chain: QLQLQESGPGLVKPSETLSLTCTVSGFSLTNYGLHWIRQPPGKCLEWIGVIWVGGATDYNPSLKSRVTISVDTSKNQFSLKLSSVQAADTAVYYCAKGDYGDTLDYWGQGTLVTVSSGGGGSGGGGSGGGGSGGGGSDIQMTQSPSSLSASVGDRVTITCHASQNINFWLSWYQQKPGKAPKLLIYEASNLHTGVPSRFSGSGSGTDFTLTISSLQPEDFATYYCQQSHSYPLTFGCGTKLEIKGSDKTHTCPPCPAPELLGGPSVFLFPPKPKDTLMISRTPEVTCVVVDVSHEDPEVKFNWYVDGVEVHNAKTKPREEQYNSTYRVVSVLTVLHQDWLNGKEYKCKVSNKALPAPIEKTISKAKGQPREPRVYTLPPCRDELTKNQVSLTCLVKGFYPSDIAVEWESNGQPENNYKTTPPVLVSDGSFTLYSKLTVDKSRWQQGNVFSCSVMHEALHNHYTQKSLSLSPG
heavy: EVQLVESGGGLVKPGGSLRLSCAASGFTFSSYSMNWVRQAPGKGLEWVSSISSSSSYIYYADSVKGRFTISRDNAKNSLYLQMNSLRAEDTAVYYCARGAPIGAAAGWFDPWGQGTLVTVSSASTKGPSVFPLAPSSKSTSGGTAALGCLVKDYFPEPVTVSWNSGALTSGVHTFPAVLQSSGLYSLSSVVTVPSSSLGTQTYICNVNHKPSNTKVDKKVEPKSCDKTHTCPPCPAPELLGGPSVFLFPPKPKDTLMISRTPEVTCVVVDVSHEDPEVKFNWYVDGVEVHNAKTKPREEQYNSTYRVVSVLTVLHQDWLNGKEYKCKVSNKALPAPIEKTISKAKGQPREPQVCTLPPSRDELTENQVSLTCLVKGFYPSDIAVEWESNGQPENNYKTTPPVLDSDGSFFLYSWLTVDKSRWQQGNVFSCSVMHEALHNHYTQKSLSLSPG
light: DIQMTQSPSSVSASVGDRVTITCRASQGISSWLAWYQQKPGKAPKLLIYAASSLQSGVPSRFSGSGSGTDFTLTISSLQPEDFATYYCQQGVSFPRTFGGGTKVEIKRTVAAPSVFIFPPSDEQLKSGTASVVCLLNNFYPREAKVQWKVDNALQSGNSQESVTEQDSKDSTYSLSSTLTLSKADYEKHKVYACEVTHQGLSSPVTKSFNRGEC
notes: F3' format heterodimer of three chains; human IgG1 Fc with EW-RVT and Y349C/S354C mutations; also called AB0089 Lot AB0089-002; CLEC12A TriNKET AB0089
EC50, KHYG1-CD16aV cytotoxicity assay; after 4 wks 40C in CST pH 7.0 [4]: 0.16 nM
EC50, KHYG1-CD16aV cytotoxicity assay; control sample [4]: 0.13 nM

EC50 [12]: 0.6 nM
B2: AB0192 TriNKET (other)
chain: EVQLVESGGGVVQPGGSLRLSCAASGFTFNAFGMHWVRQAPGKCLEWVAFISSGSTSIYYANTVKGRFTISRDNSKNTLYLQMNSLRAEDTAVYYCARDGYPTGGAMDYWGQGTSVTVSSGGGGSGGGGSGGGGSGGGGSDIQMTQSPSSLSASVGDRVTITCKASQDIYNYLSWFQQKPGKAPKPLIYRANILVSGVPSRFSGSGSGQDYTFTISSLQPEDIATYYCLQFDAFPFTFGCGTKLEIKGSDKTHTCPPCPAPELLGGPSVFLFPPKPKDTLMISRTPEVTCVVVDVSHEDPEVKFNWYVDGVEVHNAKTKPREEQYNSTYRVVSVLTVLHQDWLNGKEYKCKVSNKALPAPIEKTISKAKGQPREPRVYTLPPCRDELTKNQVSLTCLVKGFYPSDIAVEWESNGQPENNYKTTPPVLVSDGSFTLYSKLTVDKSRWQQGNVFSCSVMHEALHNHYTQKSLSLSPG
heavy: EVQLVESGGGLVKPGGSLRLSCAASGFTFSSYSMNWVRQAPGKGLEWVSSISSSSSYIYYADSVKGRFTISRDNAKNSLYLQMNSLRAEDTAVYYCARGAPIGAAAGWFDPWGQGTLVTVSSASTKGPSVFPLAPSSKSTSGGTAALGCLVKDYFPEPVTVSWNSGALTSGVHTFPAVLQSSGLYSLSSVVTVPSSSLGTQTYICNVNHKPSNTKVDKKVEPKSCDKTHTCPPCPAPELLGGPSVFLFPPKPKDTLMISRTPEVTCVVVDVSHEDPEVKFNWYVDGVEVHNAKTKPREEQYNSTYRVVSVLTVLHQDWLNGKEYKCKVSNKALPAPIEKTISKAKGQPREPQVCTLPPSRDELTENQVSLTCLVKGFYPSDIAVEWESNGQPENNYKTTPPVLDSDGSFFLYSWLTVDKSRWQQGNVFSCSVMHEALHNHYTQKSLSLSPG
light: DIQMTQSPSSVSASVGDRVTITCRASQGISSWLAWYQQKPGKAPKLLIYAASSLQSGVPSRFSGSGSGTDFTLTISSLQPEDFATYYCQQGVSFPRTFGGGTKVEIKRTVAAPSVFIFPPSDEQLKSGTASVVCLLNNFYPREAKVQWKVDNALQSGNSQESVTEQDSKDSTYSLSSTLTLSKADYEKHKVYACEVTHQGLSSPVTKSFNRGEC
notes: the condition stands under assay; also called AB0192 Lot AB0192-005
